Source: the nanobody polyreactivity screen of Harvey et al. (2022)

Experiment: yeast display, Sf9 membrane polyspecificity reagent, FACS + sequencing; frameworks hold sequencing errors
Outline: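 Genes from sorted yeast were amplified by colony PCR, read by MiSeq 2 × 250 sequencing and filtered on CDR length. These cells carried a synthetic nanobody library in Saccharomyces cerevisiae BJ5465 and were sorted by FACS into low and high (top ~1%) gates on anti-HA and streptavidin fluorescence. Polyreactivity is labelled according to the gate of origin.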

Sequence | polyreactivity (PSR sort gate)
QVQLVESGGGLVQAGGSLRLSCAASGFIFNHYRMGWYRPAPGKEREFVAAISWSGGSTYYADSVKGRFTISRDNAKNTVYLQMNSLKPEDTAVYYCAASYNGLWHGDYDYWGQGTQVTVSS | low polyreactivity
QVQLVESGGGLVQAGGSLRLSCAASGLIFWAYAMGWYRQAPGTDRELVAAINWRGGSTYYADSVKGRFTISRDTAKNTVYLQMNSLKPEDTAVYYCAADSYYDEYDYWGQGTQVTVSS | low polyreactivity
QVQLVESGGGLVQAGGSLRLSCAASGSTFYPYAMGWYRQAPGKEREFVAAISGRGGSTFYADSVKGRFTISRDNAKNTVYIQMNSLKPEDTAVYYCAASVFKLVGYDYWGQGTQVTLSS | high polyreactivity
QVQLVESGGGLVQAGGSLRLSCAASGFIFPTYAMGWYRQAPGKERELVAAISYRGGITSYADSVKGRFTISRDNAKNTVYLQMNSLKPEDTAVYYCAARGAWGYEYWGQGTQVTVSS | low polyreactivity
QVQLVESGVGLVQAGGSLRLSCAACGSTFPINAMGWYRQAPGKESELVAAISWSAGSTHYADSVKGRFTISRDNAKNTVYLQMNSLKPEDTAVYYCAAETWGLGDYWGLGTQVTVSS | low polyreactivity
QVQLVESGGGLVQAGGSLRLSCAASGRTFGDYAMGWYRQAPGKERELVAAISSSGGRTYYADSVKGRFTISRDNAKNTVYLQMNSLKPEDTAVYYCATDYLYVYGFEYYYWGQGTQVTVSS | high polyreactivity
QVQLVESGGGLVQAGGSLRLSCAASARIFWRNTMGWSRQAPGKERELVAAINYSGGRTYYADSVQGRFTISRDKAKNTVYLQMNSLKPEDTAVFDCAATPPVATNGRYYYWGQGTQVTVSS | low polyreactivity
QVQLVESGGGLVQAGGSLRLSCAASGLILNSYDMGWYRQAPGKERELVAAITRSGGNTFYADSVKGRFKISRDNAKNTVYLQMNSLNPEDTAVYYCNAYYTYWSQLYYWGQGTQVTVSS | high polyreactivity
QVQLVESGGGLVQAGGSLRLSCAASGRIFKYYAMGWSRQAPGKERELVPAINRDGGRTYYADSVKGRFTISRDNAKNTVYLQMNSLTPEETAVYYCAASYGYVYTTSLDYWGQGTQVTVSS | low polyreactivity
QVQLVESGGGLVQAGGSLRLSCAASGFIFAYYAMGWYRQAPGKERELVAAISSGGRTYYADSVKGRFTISRDNAKNTVYLQMNSLKPEDTAVYYCAAYYRLDYDYWGQGTQVTVSS | high polyreactivity
QVQLVESGGGLVQAGGSLRLSCAASGSIFYINAMGWYRQAPGKEREFVATITWSGDSTYYADSVKGRFTISRDNAKNTVYLQMNSLKPDDTAVYYCNARKQYPSYVDWEYDYWGQGTQVTVSS | low polyreactivity
QVHLVESGGGLVQAGGSLRLSCAASGRIIWNYAMGWYRQAPGKERELVASINRSGGTTYYADSVKGRFTISRDNAKNTVYLQMNSLKPEDTAVYYCNTVYYGNFYSTRYDYWGQGTQVTVSS | high polyreactivity
QVQLVESGGCLVQAGGSLRLSWAASGRTLGGYALGWYRQAPGKERELVAAINRSGTRTYYADSVKGRFTISRDKAKNTVYLQFNSLKPEDTAVYYCAASWYPGSRNYDYGGQGTQVTVSS | high polyreactivity
QVQLVESGGGLVQAGGSLRLICAASGSIFAVNAMGWYRQAPGKERELVAAISRRGGSTYYADSVKGRFTISRDNAKITDYLQMNSLKPEDTAVYYCAKRWKATRARYDYWGQGTQVTVAS | high polyreactivity
QVQLVESGGGLVQAGGSLRLSCAASGYIFRFNAMGWYRQAPGKERELVAVITSGARTYYADSVKGRFTISRDNAKNTVYLQMNSLKPEDTAVYYCNAGARRYLYDYWGQGTQVTVSS | low polyreactivity
QVQLVESGGGLVQAGGSLRLSSAASGNTFRHYAMGRYRQAPGKERELVAAISYSGGSTYYADSVKGRFTISRDNAKNTVYLQMNSLKPEDTAVYYCAAYSYASYGVSGYYYWGQGTQVTVSS | high polyreactivity
QVQLVESGGGLVQAGGSLRLSCAASGSILRIYAMGWYSQAPGKEMELVARITWSGGRTYYADSVKGRFTISRDNAKNTVYLQMNSLKPEDTAVYDCNADLQRWGWEYDYWGQGTQVTVSS | high polyreactivity
QVQLVESGGGLDQAGGSLRLSCAASGRTFIRNVMGWYRQAPGKERELVAGITGGGNTYYADSVKGRFTISRDNAKNTVYLQMNSLKPEDTAVYYCAVRYPSYGLSYVRYGYWGQGTQVTVSS | high polyreactivity
QVQLVESGGGLLQAGGSLRLSCAASGRTSGRYAMGWYRQAPGKERELVAAISSGGRTSYADSVKGRFTISRDNAQNTVDLQMISLKPEDTAVYYCAAVFVLARAYNYWGQGTLVTVSS | high polyreactivity
QVQLVESGGGLVQAGGSLRLSCAASGRIFRYYAMGWYRQAPGKDRELVAAIRSASSTYYADSVKGRFTISRDNAKNTVYVQMNSLKPEDTAVSYCAARLYGVYKRRYYYWGQGTQVTVSS | high polyreactivity
QVQLVESGGGLVQAGGSLRLSCAASGFTFVKYAMGWYRQAPGKERELVAVISRRGGSTYYADSVKGRFTISRDNAKNTVYLQMNSLKPEDTAVYYFAAKVALPRTQEWEYGYWGQGTQVTVSS | high polyreactivity
QVQLVESGGGLVQAGGSLRISCAASGSIFRRNAMGWYRQAPGKERELVATITSDGSTDYADSVKGRFTISRDNAKYTVYLQMNRLKPEDTVYYCAAGRTPYWHATFGYWGQGTQVTVSS | low polyreactivity

Sequence | polyreactivity (PSR sort gate)
QVQLVESGGGLVQAGGSLRFSCAASGFIFGDYAMGWDRQAPGTEREFVATISRSVGSRSYADSVKGRFTISRDNAKKPVYLQMNSLKPEDTAVYYCAAVTWGEGFDYWGQGTQVTVSA | low polyreactivity
QVQLVESAGGLVQAGGSLRLSCAASGRTFKYYAMGWYRQAPGKERELVAAITSTGGSTYYADSVKGRFTISRDNEKNTVYLQMNSLKPEDTAVYYCNRYTQYRDRSDNHWGQGTHVTVSS | high polyreactivity
QVQLVESGGGLVQAGGSLRLSCAASGRTIEQYDMGWYRQAPGKDRELVAAISWRGGGTYYADSVKGRFTISRDNAKNTVYLQMNSLKPEDTAVYYCAKKSHTTDEGYDYWGQGTQVTVSS | low polyreactivity
QVQLVESGGGLVQAGGSLRLSCAASGITFAFYDMGWYRQAPGKERELVAAISYSGGGTYYADSVKGRFTISRDNAKNTVYLQMNSLKPEDTAVYYCAADPKTHALFGEDYWGQGTQVTVSS | low polyreactivity
QVQLVESAGGLFQEGGSLRVSCAASGSTFSYYDMGGYRQAPGKERELVAAINSTGITTYADSVKGRFTISRDNAKNTVYLQMNSLKPEDTAVYYCAAYHNYWGPYVWEEDYWGQGTQVTVSS | low polyreactivity
QVQLVESGGGLVQAGGSLRLSCAASGSTFLSYAMGWYIQAPGKEREFVAAIPSIVGSTYYADSVKGRFTISRDNAKNTVYLQMNSLKPEDTAVYYCATDSYPGLNPDFDYWGQGTQVTVSS | low polyreactivity
QVQLVESGGGLVQAGGSLRLSCAASGRTLVDYGMVWYRQAPGKERELVAVITSGGSTYYADSVKGRFTISRDNAKNTVYLQLNSLIQEDTAVYYCAADNCYRGYHSPYDYWGQGTQVTVSS | low polyreactivity
QVQLVESGGGLVQAGGSLRLSCAASGSTLQNNAMGRYRQAPGKERELVAAISVSDGITYYADSVKGRFTISRDNAKNTVYLQMNSLKPEDTAVYSFAADYSSPWQAVQGDDYWGQGTQVTVSS | low polyreactivity
QVQLVESGGGLVQAGGSLRLSCAASGSTFTSYAMGWYRQAPGKERELVAAITRNGGTTYYADSVKGRFTISRDNAKNTVYLQMNSLKPEDTAVYYCNAPHYYYITSDRRFDYWGQGTQVTVSS | low polyreactivity
QVQLVESGGGLVQAGGSLRLSCAASRIIFYGNAMGWYRQAHGKERELVAAIDQSGDSTYYADSVKGRFTISRDNAKNTVYLQMNSLKPEDTAVYYCAADSLYLAYEYWGQGTQVTVSS | high polyreactivity
QVQLVESGGGLVQAGGSLRLSCAASGRIFPAYAMGWYRQAPGKERELVASIRRGGITYADSVKGRFTISRDNAKNTVYLLMNSLKPEDTAVYYCNAYVNRATAGRYYSWGQGTQVTVSS | low polyreactivity
QVQLVESGGGLVQAGGSLRLSCAASGRIFFNYAMGWYSQAPGKERELVAAIRGGGSTYADSVKGRFTISRDNAKNTVYLQLNSLKPADTAVYYCAARYSGSPYHTRRYYYWGQGTQVTVSS | high polyreactivity
QVLLQESGGGLVQAGGSLRLSCAASGSIFLFYTMGWYRQAPVKEREFVAGITLGTTTYNADSVKGRFTISRDNVKNTLYLQMNSLKPEDTAVYYCAVAVGHYTEFWYWGQGTQVTMSS | high polyreactivity
QVQLVESGRGLVQAGVSLRLSCAASGSIFEQYAMGWYRQAPGKERELVAAITISGGGTFYADSVKGRFTISRDNAKNTVYLQMNSLKPEDTAVYYCAKRGYYFWSRKYGYWGQGTQVTVSS | low polyreactivity
QVQLVESGGGLVQAGGSLRLSCAASGSTFARYAMGWYRQAPGKERELVAGISRGGRTYYADSVMGRFTISRDYAKNTVYLQMNSLKPVDTAVYYCAKRYVTLYNSQYNYWGQGTQVTVSS | high polyreactivity
QVQLVESGAGLVQAGGSLRLSCADSGSIFYYYAMGWYRQAPGKEREFGAAIRESVGSTYYADSVKGSFTISRDNAKNTVYLQMNSRKPEDTAVYYCAVRRPRRNYNYPYDYWGQGTQVTVSS | low polyreactivity
QVQLVESGGGLVQAGGSLRLSCAASGSIFYRYAMGWYRQAPGKERELVAAISSNGVSTYYADSVKGRFTISRDNAKNTVYLQMNSLKPEDTAVYYCARDVYASPRLYTSRYNYWGQGTQVTVSS | low polyreactivity
QVQLEESGGGLVQAGGSLRLSCAASGSTFVEYAMGWYRQAPGKERELVAAITASGGSTYYADSVKGRFTISRDNAKNTVYLQMNSLKPEDTAVYYCAVTTRSRGFRDIDYWGQGTQVTVSS | low polyreactivity
QVQLVESGGGLVQAGGSLRLSCAASGSTFFIYAMGWYRQAPGKERELVATITKRGGRTYYADSVKGRFTISRDNAKNTVYLQMNSLKPEDTAVYYCAKDLWAVYLPGYDYWGQGTQVTVSS | low polyreactivity
QVQLVESGGGLVQAGGSLRLSCAASGSIFDVYTMGWYRQAPGKERELVAAISQSTGSTYYAASVKGRFTISRDNAKNTVYLQMNSLIPEDTAVYYCNAKFRFVTYKTPYVFWGQVTQVTVSS | low polyreactivity
QVQLVESGGGLVQAGGSLRLSCAASGSTLVGNAMGWYRQAPGKERELVATIDLSDDITYYADSVKGRFTISRDKAKNTVYLQMNSLKPEDTAVYYCAAEYYLYSTYTVSYWKYDYWGQGTQVTVSS | high polyreactivity
